# Test results reported in patent US20240132578A1 (published 2024).
# Changes are numbered by the printed parent chain.
# B1: 1456_P20 (PG20) (antibody, human IgG1, kappa, V domains shown)
# VH: QVRLVQSGPEVKKPGSSVTVSCQASGGTFSSYAFTWVRQAPGQGLEWLGMVTPIFGEAKYSQRFEGRVTITADESTSTTSIELRGLTSEDTAIYYCARDRRAVPIATDNWLDPWGQGTLVTVSS
# VL: DIQLTQSPSSLSASVGDRVSITCRASQTINNYLNWYQQTPGKAPKLLIYGASNLQNGVPSRFSGSGSGTDFTLTISSLQPEDFATYYCQQSFSTPRTFGQGTRLDIKR
# B2: 1460_G14 (PGG14) (antibody, human IgG1, kappa, V domains shown)
# VH: QVLLVQSGTEVKKPGSSVKVSCQASGGAFSSYAFSWVRQAPGQGLEWMGMITPVFGETKYAPRFQGRLTLTAEESLSTTYMELRSLTSDDTAFYYCTRDRRVVPMATDNWLDPWGQGTLVTVSS
# VL: B1 VL with S20T, I21V, N30H, N31T, T39I, N53T, N56S, S76N, F92Y
# B3: 1495_C14 (PGC14) (antibody, human IgG1, lambda, V domains shown)
# VH: DGHLVQSGVEVKKTGATVKISCKVSGYSFIDYYLHWVQRAPGKGLEWVGLIDPENGEARYAEKFQGRVTIIADTSIDTGYMEMRSLKSEDTAVYFCAAGAVGADSGSWFDPWGQGTLVTVSS
# VL: SYELTQPPSVSVSPGQTASITCSGSKLGDKYVSWYQLRPGQSPILVMYENDRRPSGIPERFSGSNSGDTATLTISGTQALDEADFYCQAWETTTTTFVFFGGGTQLTVLG
# B4: 1460_G14 (PGG14) (antibody, human IgG1, kappa, V domains shown)
# VH: B2 VH
# VL: B1 VL with S20T, I21V, N30H, N31T, T39I, N53T, N56S, S76N, F92Y
# B5: 1456_P20 (PG20) (antibody, human IgG1, kappa, V domains shown)
# VH: B1 VH
# VL: B1 VL
# B6: 1495_C14 (PGC14) (antibody, human IgG1, lambda, V domains shown)
# VH: B3 VH
# VL: B3 VL
# B7: B cell culture supernatant of well 1460 G14 (source of antibody 1460_G14 (PGG14)) (antibody, V domains shown)
# VH: B2 VH
# VL: DIQLTQSPSSLSASVGDRVTVTCRASQTIHTYLNWYQQIPGKAPKLLIYGASTLQSGVPSRFSGSGSGTDFTLTINSLQPEDFATYYCQQSYSTPRTFGQGTRLDIK
# B8: B cell culture supernatant of well 1443 C16 (source of antibody 1443_C16 (PG16) (TCN-116)) (antibody, V domains shown)
# VH: QEQLVESGGGVVQPGGSLRLSCLASGFTFHKYGMHWVRQAPGKGLEWVALISDDGMRKYHSDSMWGRVTISRDNSKNTLYLQFSSLKVEDTAMFFCAREAGGPIWHDDVKYYDFNDGYYNYHYMDVWGKGTTVTVSS
# VL: QSALTQPASVSGSPGQTITISCNGTSSDVGGFDSVSWYQQSPGKAPKVMVFDVSHRPSGISNRFSGSKSGNTASLTISGLHIEDEGDYFCSSLTDRSHRIFGGGTKVTVL
# B9: B cell culture supernatant of well 1456 P20 (source of antibody 1456_P20 (PG20)) (antibody, V domains shown)
# VH: B1 VH
# VL: B7 VL with T20S, V21I, H30N, T31N, I39T, T53N, S56N, N76S, Y92F
# B10: B cell culture supernatant of well 1495 C14 (source of antibody 1495_C14 (PGC14)) (antibody, V domains shown)
# VH: B3 VH
# VL: SYELTQPPSVSVSPGQTASITCSGSKLGDKYVSWYQLRPGQSPILVMYENDRRPSGIPERFSGSNSGDTATLTISGTQALDEADFYCQAWETTTTTFVFFGGGTQLTVL
# B11: B cell culture supernatant of well 1496 C9 (source of antibody 1496_C09 (PG9) (TCN-109)) (antibody, V domains shown)
# VH: QRLVESGGGVVQPGSSLRLSCAASGFDFSRQGMHWVRQAPGQGLEWVAFIKYDGSEKYHADSVWGRLSISRDNSKDTLYLQMNSLRVEDTATYFCVREAGGPDYRNGYNYYDFYDGYYNYHYMDVWGKGTTVTVSS
# VL: QSALTQPASVSGSPGQSITISCNGTSNDVGGYESVSWYQQHPGKAPKVVIYDVSKRPSGVSNRFSGSKSGNTASLTISGLQAEDEGDYYCKSLTSTRRRVFGTGTKLTVL
# Biological target: aMLV envelope (negative control pseudovirus)
# Test: cell-based or functional assay
row,Binder,"IC50 (µg/mL), pseudovirus neutralization"
1,B1,> 50 µg/mL
2,B2,> 50 µg/mL
3,B3,> 50 µg/mL

# Biological target: HIV-1 93IN905 Env (clade C pseudovirus) (HIV-1)
# Test: cell-based or functional assay
row,Binder,"IC50 (µg/mL), pseudovirus neutralization"
1,B1,> 50 µg/mL
2,B2,> 50 µg/mL
3,B3,> 50 µg/mL

# Biological target: HIV-1 IAVI-C22 Env (clade C pseudovirus) (HIV-1)
# Test: cell-based or functional assay
row,Binder,"IC50 (µg/mL), pseudovirus neutralization"
1,B1,> 50 µg/mL
2,B2,> 50 µg/mL
3,B3,> 50 µg/mL

# Biological target: HIV-1 IAVI-C18 Env (clade C pseudovirus) (HIV-1)
# Test: cell-based or functional assay
row,Binder,"IC50 (µg/mL), pseudovirus neutralization"
1,B1,> 50 µg/mL
2,B2,> 50 µg/mL
3,B3,> 50 µg/mL

# Biological target: HIV-1 92BR020 Env (clade B pseudovirus) (HIV-1)
# Test: cell-based or functional assay
row,Binder,"IC50 (µg/mL), pseudovirus neutralization"
1,B1,> 50 µg/mL
2,B2,> 50 µg/mL
3,B3,0.64 µg/mL

# Biological target: HIV-1 93UG077 Env (clade A pseudovirus) (HIV-1)
# Test: cell-based or functional assay
row,Binder,"IC50 (µg/mL), pseudovirus neutralization"
1,B1,> 50 µg/mL
2,B2,> 50 µg/mL
3,B3,> 50 µg/mL

# Biological target: HIV-1 CMU02 Env (CRF01_AE pseudovirus) (HIV-1)
# Test: cell-based or functional assay
row,Binder,"IC50 (µg/mL), pseudovirus neutralization"
1,B1,> 50 µg/mL
2,B2,> 50 µg/mL
3,B3,> 50 µg/mL

# Biological target: HIV-1 APV-6 Env (clade B pseudovirus) (HIV-1)
# Test: cell-based or functional assay
row,Binder,"IC50 (µg/mL), pseudovirus neutralization"
1,B1,25.8 µg/mL
2,B2,> 50 µg/mL
3,B3,7.41 µg/mL

# Biological target: HIV-1 IAVI-C3 Env (clade C pseudovirus) (HIV-1)
# Test: cell-based or functional assay
row,Binder,"IC50 (µg/mL), pseudovirus neutralization"
1,B1,> 50 µg/mL
2,B2,> 50 µg/mL
3,B3,9.5 µg/mL

# Biological target: HIV-1 94UG103 Env (clade A pseudovirus) (HIV-1)
# Test: cell-based or functional assay
row,Binder,"IC50 (µg/mL), pseudovirus neutralization"
1,B1,> 50 µg/mL
2,B2,> 50 µg/mL
3,B3,> 50 µg/mL

# Biological target: HIV-1 APV-13 Env (clade B pseudovirus) (HIV-1)
# Test: cell-based or functional assay
row,Binder,"IC50 (µg/mL), pseudovirus neutralization"
1,B1,> 50 µg/mL
2,B2,> 50 µg/mL
3,B3,> 50 µg/mL

# Biological target: HIV-1 92UG005 Env (clade D pseudovirus) (HIV-1)
# Test: cell-based or functional assay
row,Binder,"IC50 (µg/mL), pseudovirus neutralization"
1,B1,> 50 µg/mL
2,B2,> 50 µg/mL
3,B3,> 50 µg/mL

# Biological target: HIV-1 92TH021 Env (CRF01_AE pseudovirus) (HIV-1)
# Test: cell-based or functional assay
row,Binder,"IC50 (µg/mL), pseudovirus neutralization"
1,B1,> 50 µg/mL
2,B2,> 50 µg/mL
3,B3,> 50 µg/mL

# Biological target: HIV-1 92RW020 Env (clade A pseudovirus) (HIV-1)
# Test: cell-based or functional assay
row,Binder,"IC50 (µg/mL), pseudovirus neutralization"
1,B1,50 µg/mL
2,B2,> 50 µg/mL
3,B3,28.6 µg/mL

# Biological target: HIV-1 APV-17 Env (clade B pseudovirus) (HIV-1)
# Test: cell-based or functional assay
row,Binder,"IC50 (µg/mL), pseudovirus neutralization"
1,B1,> 50 µg/mL
2,B2,> 50 µg/mL
3,B3,> 50 µg/mL

# Biological target: HIV-1 92UG024 Env (clade D pseudovirus) (HIV-1)
# Test: cell-based or functional assay
row,Binder,"IC50 (µg/mL), pseudovirus neutralization"
1,B1,> 50 µg/mL
2,B2,> 50 µg/mL
3,B3,> 50 µg/mL

# Biological target: HIV-1 JRCSF Env (clade B pseudovirus) (HIV-1, UniProt P20871 32-848)
# Test: cell-based or functional assay
row,Binder,"IC50 (µg/mL), pseudovirus neutralization"
1,B1,> 50 µg/mL
2,B2,> 50 µg/mL
3,B3,> 50 µg/mL

# Biological target: T1, recombinant gp41HxB2 (HIV-1 clone HxB2, UniProt P04578 541-682)
# T1 construct: domain: gp41
# Test: ELISA on recombinant gp41
row,Binder,binding result
1,B4,no binding
2,B5,no binding
3,B6,no binding

# Biological target: T2, Recombinant gp41 generated with sequences derived from HxB2 clone of HIV-1, expressed in Pichia pastoris (HIV-1 clone HxB2, UniProt P04578 541-682)
# T2 construct: domain: gp41; also called gp41HxB2
# Test: ELISA, B cell culture supernatant on directly immobilised recombinant gp41
row,Binder,binding result
1,B7,no binding
2,B8,no binding
3,B9,no binding
4,B10,no binding
5,B11,no binding
